{
  "source": "paper PMC4523182",
  "about": "“Biochemical Characterization of a Mycobacteriophage Derived DnaB Ortholog Reveals New Insight into the Evolutionary Origin of DnaB Helicases”",
  "key": {"[1]": {"target": "Wildcat Gp80 (mycobacteriophage Wildcat)", "test": "SEC; analytical Superose 6 10/300 GL, FPLC, 0.4 ml/min, 40 mM Tris-HCl pH 7.5, 50 mM KCl, 2 mM DTT; Mw from a standard curve (thyroglobulin, beta-amylase, BSA, ovalbumin, cytochrome C)"}, "[2]": {"target": "Wildcat Gp80 (mycobacteriophage Wildcat)", "test": "dynamic light scattering; higher protein concentrations (1 uM unless otherwise stated), 50 mM Tris-HCl pH 8.0, 50 mM KCl, 2 mM DTT, 1 mM MgCl2, 25°C; weight average hydrodynamic radius; no cofactor; oligomer also kept with 4 mM AMP-PNP and with 4 mM ATP plus 24 uM 41 mer ssDNA"}, "[3]": {"target": "T1, WCGp80 (Wildcat Gp80, DnaB-type helicase) (Mycobacteriophage Wildcat, UniProt Q19XY0 1-441)", "T1 sequence": "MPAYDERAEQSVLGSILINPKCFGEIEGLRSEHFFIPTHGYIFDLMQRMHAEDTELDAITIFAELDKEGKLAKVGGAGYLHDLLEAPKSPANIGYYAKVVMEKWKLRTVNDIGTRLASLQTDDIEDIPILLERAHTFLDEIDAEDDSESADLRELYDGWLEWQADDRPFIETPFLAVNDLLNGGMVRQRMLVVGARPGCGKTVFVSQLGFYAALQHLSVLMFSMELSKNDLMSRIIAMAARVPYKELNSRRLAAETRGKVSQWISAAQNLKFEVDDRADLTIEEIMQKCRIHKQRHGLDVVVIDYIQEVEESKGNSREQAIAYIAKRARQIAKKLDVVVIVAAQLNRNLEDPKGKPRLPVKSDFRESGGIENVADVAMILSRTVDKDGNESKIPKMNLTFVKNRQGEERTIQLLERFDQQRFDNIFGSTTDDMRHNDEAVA", "test": "fluorescence polarization; one-site non-cooperative fit; Binding buffer, pH and temperature not given in the material; Trp quenching ex 280/em 340 nm (helicase assay buffer E: 50 mM Tris-HCl pH 8.0, 50 mM KCl, 2 mM DTT, 0.25 mg/ml BSA, 4 mM MgCl2, 4 mM ATP, 4% sucrose, 37 C)", "conditions": "protein: recombinant; tags: N-terminal His6 (pQE30); chain copies: 6; label: 5' 6-FAM on oligo 2; fork 20 bp stem; 40 nt 5' tail on oligo1 and 40 nt 3' tail on oligo2"}, "[4]": {"target": "T1, WCGp80 (Wildcat Gp80, DnaB-type …)", "test": "tryptophan fluorescence quenching; 40 nM protein; S6 Fig legend gives 152 nM; Binding buffer, pH and temperature not given in the material; Trp quenching ex 280/em 340 nm (helicase assay buffer E: 50 mM Tris-HCl pH 8.0, 50 mM KCl, 2 mM DTT, 0.25 mg/ml BSA, 4 mM MgCl2, 4 mM ATP, 4% sucrose, 37 C)", "conditions": "protein: recombinant; tags: N-terminal His6 (pQE30); chain copies: 6; single strand"}, "[5]": {"target": "T1, WCGp80 (Wildcat Gp80, DnaB-type …)", "test": "tryptophan fluorescence quenching; 40 nM protein; S6 Fig legend gives 56.44 nM; Binding buffer, pH and temperature not given in the material; Trp quenching ex 280/em 340 nm (helicase assay buffer E: 50 mM Tris-HCl pH 8.0, 50 mM KCl, 2 mM DTT, 0.25 mg/ml BSA, 4 mM MgCl2, 4 mM ATP, 4% sucrose, 37 C)", "conditions": "protein: recombinant; tags: N-terminal His6 (pQE30); chain copies: 6; single strand"}},
  "data": [
    {"molecule": "Wildcat Gp80 (enzyme)", "values": [
      {"measurement": "stoichiometry N", "setting": "[1]", "result": 6},
      {"measurement": "stoichiometry N", "setting": "[2]", "result": 6}
    ]},
    {"molecule": "fork substrate (oligo1/oligo2) (mixed) DNA 1: GCCCTGATCACGGTACTCGGTTTTTTTTTTTTTTTTTTTTGGCTCCTCTAGACTCGACCG DNA 2: CGGTCGAGTCTAGAGGAGCCTTTTTTTTTTTTTTTTTTTTTTTTTTTTTTTTTTTTTTTT", "values": [
      {"measurement": "Kd", "setting": "[3]", "result": 9.5, "unit": "nM"}
    ]},
    {"molecule": "60-mer (oligo2) (ssDNA) DNA: CGGTCGAGTCTAGAGGAGCCTTTTTTTTTTTTTTTTTTTTTTTTTTTTTTTTTTTTTTTT", "values": [
      {"measurement": "Kd", "setting": "[4]", "result": 164, "unit": "nM"}
    ]},
    {"molecule": "TCGAGCTCGGTACCCGGGGATCCTCTAGAGTCGACCTGCAGG (ssDNA)", "note": "[41-mer]", "values": [
      {"measurement": "Kd", "setting": "[5]", "result": 58, "unit": "nM"}
    ]}
  ]
}
